The Immune Epitope Database (IEDB)

Columns and labels:
HLA-B*27:05 [1] = test: IEDB peptide-MHC binding, purified MHC/direct/fluorescence; filed as Kd, often an IC50 or EC50 that approximates it; ≥ and ≤ were set here for values at or beyond the usual limits of such assays
HLA-B*48:01 = test: as above
HLA-C*06:02 = test: as above; conditions: source organism: Kurkino virus
HLA-C*07:02 = test: as above; conditions: source organism: Kurkino virus
HLA-A*03:01 = test: as above
HLA-A*26:01 = test: as above
HLA-B*15:01 = test: as above
HLA-B*18:01 = test: as above
HLA-B*27:03 = test: as above
HLA-B*39:01 = test: as above
HLA-B*46:01 [2] = test: as above
HLA-B*51:01 = test: as above
HLA-C*12:03 = test: as above
HLA-B*15:02 [3] = test: IEDB peptide-MHC binding, purified MHC/competitive/fluorescence; filed as Kd, often an IC50 or EC50 that approximates it; ≥ and ≤ were set here for values at or beyond the usual limits of such assays
HLA-A*01:01 = test: IEDB peptide-MHC binding, purified MHC/direct/fluorescence; filed as Kd, often an IC50 or EC50 that approximates it; ≥ and ≤ were set here for values at or beyond the usual limits of such assays
HLA-A*02:01 = test: as above
HLA-A*11:01 = test: as above
HLA-A*31:01 = test: as above
HLA-A*69:01 = test: as above
HLA-B*07:02 = test: as above
HLA-B*08:01 [4] = test: as above
HLA-B*40:01 = test: as above
HLA-B*44:02 = test: as above; conditions: source organism: Brucella melitensis
HLA-B*58:01 = test: as above
HLA-B*73:01 = test: as above; conditions: source organism: Brucella suis 1330
HLA-C*03:03 = test: as above; conditions: source organism: SARS-CoV1
HLA-C*08:02 = test: as above
HLA-C*14:02 = test: as above; conditions: source organism: SARS-CoV1
HLA-C*15:02 = test: as above; conditions: source organism: SARS-CoV1
HLA-B*46:01 [5] = test: IEDB peptide-MHC binding, purified MHC/competitive/fluorescence; filed as Kd, often an IC50 or EC50 that approximates it; ≥ and ≤ were set here for values at or beyond the usual limits of such assays; conditions: source organism: SARS-CoV1
HLA-A*68:02 = test: IEDB peptide-MHC binding, purified MHC/direct/fluorescence; filed as Kd, often an IC50 or EC50 that approximates it; ≥ and ≤ were set here for values at or beyond the usual limits of such assays; conditions: source organism: H9N2 subtype Influenza A virus (A/swine/Korea/S83/2004(H9N2))
HLA-B*15:02 [6] = test: as above; conditions: source organism: H9N2 subtype Influenza A virus (A/swine/Korea/S83/2004(H9N2))
HLA-B*15:17 = test: as above; conditions: source organism: H9N2 subtype Influenza A virus (A/swine/Korea/S83/2004(H9N2))
HLA-B*57:01 = test: as above
HLA-A*02:03 [7] = test: IEDB peptide-MHC binding, purified MHC/competitive/fluorescence; filed as Kd, often an IC50 or EC50 that approximates it; ≥ and ≤ were set here for values at or beyond the usual limits of such assays; conditions: source organism: Influenza A virus H3N2
HLA-A*26:02 = test: as above; conditions: source organism: Influenza A virus H3N2
HLA-B*08:01 [8] = test: as above; conditions: source organism: Influenza A virus H3N2
HLA-B*27:05 [9] = test: as above; conditions: source organism: Influenza A virus H3N2
HLA-A*02:03 [10] = test: IEDB peptide-MHC binding, purified MHC/direct/fluorescence; filed as Kd, often an IC50 or EC50 that approximates it; ≥ and ≤ were set here for values at or beyond the usual limits of such assays
HLA-A*02:12 = test: as above
HLA-A*02:16 = test: as above
HLA-A*02:19 = test: as above
HLA-A*02:11 = test: as above; conditions: source organism: Yersinia pestis CA88-4125
[11] = source organism: Orthohantavirus dobravaense
[12] = source organism: Coxiella burnetii Q321
[13] = source organism: Brucella melitensis
[14] = source organism: H9N2 subtype Influenza A virus (A/swine/Korea/S83/2004(H9N2))
[15] = source organism: Yersinia enterocolitica subsp. enterocolitica 8081
[16] = source organism: Yersinia pestis CA88-4125
[17] = source organism: Bacillus cereus

RRNDGVVQY
Kd (HLA-B*27:05 [1]; [11]): 0.146 µM | Kd (HLA-B*48:01; [11]): ≥ 20 µM | Kd (HLA-C*06:02): 0.061 µM | Kd (HLA-C*07:02): 0.029 µM

IAFTRLFTV
Kd (HLA-A*03:01; [12]): ≥ 20 µM | Kd (HLA-A*26:01; [12]): ≥ 20 µM | Kd (HLA-B*15:01; [12]): ≥ 20 µM | Kd (HLA-B*18:01; [12]): ≥ 20 µM | Kd (HLA-B*27:03; [12]): ≥ 20 µM | Kd (HLA-B*39:01; [12]): ≥ 20 µM | Kd (HLA-B*46:01 [2]; [12]): ≥ 20 µM | Kd (HLA-B*51:01; [12]): 3.24 µM | Kd (HLA-C*12:03; source organism: Coxiella burnetii RSA 493): ≤ 0.001 µM

LQLARDGMF
Kd (HLA-B*15:02 [3]; source organism: Brucella suis ATCC 23445): ≥ 20 µM

RVISDGYFK
Kd (HLA-A*01:01; [13]): ≥ 20 µM | Kd (HLA-A*02:01; [13]): ≥ 20 µM | Kd (HLA-A*03:01; [13]): 0.395 µM | Kd (HLA-A*11:01; [13]): 0.0538 µM | Kd (HLA-A*26:01; [13]): ≥ 20 µM | Kd (HLA-A*31:01; [13]): 0.042 µM | Kd (HLA-A*69:01; [13]): ≥ 20 µM | Kd (HLA-B*07:02; [13]): ≥ 20 µM | Kd (HLA-B*08:01 [4]; [13]): ≥ 20 µM | Kd (HLA-B*15:01; [13]): ≥ 20 µM | Kd (HLA-B*27:05 [1]; [13]): 7.19 µM | Kd (HLA-B*40:01; [13]): ≥ 20 µM | Kd (HLA-B*44:02): ≥ 20 µM | Kd (HLA-B*58:01; [13]): ≥ 20 µM | Kd (HLA-B*73:01): ≥ 20 µM

KSYEHQTPF
Kd (HLA-A*01:01; source organism: SARS-CoV1): ≥ 27.1 µM | Kd (HLA-A*03:01; source organism: SARS-CoV1): 0.0898 µM | Kd (HLA-A*11:01; source organism: SARS-CoV1): 0.837 µM | Kd (HLA-A*31:01; source organism: SARS-CoV1): 0.186 µM | Kd (HLA-B*07:02; source organism: SARS-CoV1): 5.72 µM | Kd (HLA-B*08:01 [4]; source organism: SARS-CoV1): 14.4 µM | Kd (HLA-B*15:01; source organism: SARS-CoV1): 0.169 µM | Kd (HLA-B*27:05 [1]; source organism: SARS-CoV1): 4.42 µM | Kd (HLA-B*40:01; source organism: SARS-CoV1): ≥ 91.4 µM | Kd (HLA-B*58:01; source organism: SARS-CoV1): 0.088 µM | Kd (HLA-C*03:03): 0.035 µM | Kd (HLA-C*08:02; source organism: SARS-CoV1): ≥ 20 µM | Kd (HLA-C*12:03; source organism: SARS-CoV1): 0.014 µM | Kd (HLA-C*14:02): 0.093 µM | Kd (HLA-C*15:02): 0.011 µM | Kd (HLA-B*46:01 [5]): 0.0469 µM

LLRMFDHPF
Kd (HLA-B*15:02 [3]; source organism: Vibrio vulnificus YJ016): 0.0209 µM

FQKDAKVLF
Kd (HLA-A*01:01; [14]): ≥ 20 µM | Kd (HLA-A*02:01; [14]): ≥ 20 µM | Kd (HLA-A*11:01; [14]): ≥ 20 µM | Kd (HLA-A*31:01; [14]): ≥ 20 µM | Kd (HLA-A*68:02): ≥ 20 µM | Kd (HLA-A*69:01; [14]): ≥ 20 µM | Kd (HLA-B*07:02; [14]): ≥ 20 µM | Kd (HLA-B*15:01; [14]): 0.116 µM | Kd (HLA-B*15:02 [6]): 1.72 µM | Kd (HLA-B*15:17): ≥ 20 µM | Kd (HLA-B*39:01; source organism: Influenza A virus(A/swine/Shandong/fZC/2003(H9N2))): ≥ 20 µM | Kd (HLA-B*46:01 [2]; [14]): ≥ 20 µM | Kd (HLA-B*48:01; [14]): 0.99 µM | Kd (HLA-B*57:01; [14]): ≥ 20 µM | Kd (HLA-B*58:01; [14]): ≥ 20 µM | Kd (HLA-A*02:03 [7]): ≥ 20 µM | Kd (HLA-A*26:02): ≥ 20 µM | Kd (HLA-B*08:01 [8]): ≥ 20 µM | Kd (HLA-B*27:05 [9]): 3.34 µM

LAYLAGWII
Kd (HLA-A*02:01; [15]): ≥ 20 µM | Kd (HLA-A*02:03 [10]; [15]): ≥ 20 µM | Kd (HLA-A*02:12; [15]): ≥ 20 µM | Kd (HLA-A*02:16; [15]): ≥ 20 µM | Kd (HLA-A*02:19; [15]): ≥ 20 µM | Kd (HLA-A*03:01; [15]): ≥ 20 µM | Kd (HLA-A*26:01; [15]): ≥ 20 µM | Kd (HLA-B*15:01; [15]): ≥ 20 µM | Kd (HLA-B*18:01; [15]): ≥ 20 µM | Kd (HLA-B*27:03; [15]): ≥ 20 µM | Kd (HLA-B*39:01; [15]): ≥ 20 µM | Kd (HLA-B*46:01 [2]; [15]): ≥ 20 µM | Kd (HLA-B*51:01; [15]): 1.39 µM

KLLARFLFE
Kd (HLA-A*02:01; [16]): ≥ 20 µM | Kd (HLA-A*02:03 [10]; [16]): ≥ 20 µM | Kd (HLA-A*02:11): ≥ 20 µM | Kd (HLA-A*02:12; [16]): ≥ 20 µM | Kd (HLA-A*02:16; [16]): ≥ 20 µM | Kd (HLA-A*02:19; [16]): ≥ 20 µM | Kd (HLA-A*03:01; [16]): ≥ 20 µM | Kd (HLA-A*26:01; [16]): ≥ 20 µM | Kd (HLA-B*15:01; [16]): ≥ 20 µM | Kd (HLA-B*18:01; [16]): ≥ 20 µM | Kd (HLA-B*27:03; [16]): ≥ 20 µM | Kd (HLA-B*39:01; [16]): ≥ 20 µM | Kd (HLA-B*46:01 [2]; [16]): ≥ 20 µM | Kd (HLA-B*51:01; [16]): ≥ 20 µM | Kd (HLA-B*57:01; [16]): ≥ 20 µM

YTLNDAPYI
Kd (HLA-A*02:01; [17]): 0.0381 µM | Kd (HLA-A*69:01; [17]): 0.0024 µM | Kd (HLA-C*08:02; source organism: Bacillus anthracis str. A0389): 0.181 µM
